Values quoted from earlier work in article PMC7911819.

Molecular target: calmodulin (Homo sapiens) (UniProt P0DP23)

**Q.** Which Kd does the source give for CyaA 1-370 (from UniProt P0DKX7) here?
**A.** Its Kd is < 0.1 nM.
